Test results as given in IntAct's records for PubMed 17627274.

B1: High osmolarity signaling protein SHO1 (Saccharomyces cerevisiae), P40073 (parent)
chain: MSISSKIRPTPRKPSRMATDHSFKMKKFYADPFAISSISLAIVSWVIAIGGSISSASTNESFPRFTWWGIVYQFLIICSLMLFYCFDLVDHYRIFITTSIAVAFVYNTNSATNLVYADGPKKAAASAGVILLSIINLIWILYYGGDNASPTNRWIDSFSIKGIRPSPLENSLHRARRRGNRNTTPYQNNVYNDAIRDSGYATQFDGYPQQQPSHTNYVSSTALAGFENTQPNTSEAVNLHLNTLQQRINSASNAKETNDNSNNQTNTNIGNTFDTDFSNGNTETTMGDTLGLYSDIGDDNFIYKAKALYPYDADDDDAYEISFEQNEILQVSDIEGRWWKARRANGETGIIPSNYVQLIDGPEEMHR
B2: High osmolarity signaling protein SHO1 (Saccharomyces cerevisiae), P40073 (parent)
chain: B1 chain
partner: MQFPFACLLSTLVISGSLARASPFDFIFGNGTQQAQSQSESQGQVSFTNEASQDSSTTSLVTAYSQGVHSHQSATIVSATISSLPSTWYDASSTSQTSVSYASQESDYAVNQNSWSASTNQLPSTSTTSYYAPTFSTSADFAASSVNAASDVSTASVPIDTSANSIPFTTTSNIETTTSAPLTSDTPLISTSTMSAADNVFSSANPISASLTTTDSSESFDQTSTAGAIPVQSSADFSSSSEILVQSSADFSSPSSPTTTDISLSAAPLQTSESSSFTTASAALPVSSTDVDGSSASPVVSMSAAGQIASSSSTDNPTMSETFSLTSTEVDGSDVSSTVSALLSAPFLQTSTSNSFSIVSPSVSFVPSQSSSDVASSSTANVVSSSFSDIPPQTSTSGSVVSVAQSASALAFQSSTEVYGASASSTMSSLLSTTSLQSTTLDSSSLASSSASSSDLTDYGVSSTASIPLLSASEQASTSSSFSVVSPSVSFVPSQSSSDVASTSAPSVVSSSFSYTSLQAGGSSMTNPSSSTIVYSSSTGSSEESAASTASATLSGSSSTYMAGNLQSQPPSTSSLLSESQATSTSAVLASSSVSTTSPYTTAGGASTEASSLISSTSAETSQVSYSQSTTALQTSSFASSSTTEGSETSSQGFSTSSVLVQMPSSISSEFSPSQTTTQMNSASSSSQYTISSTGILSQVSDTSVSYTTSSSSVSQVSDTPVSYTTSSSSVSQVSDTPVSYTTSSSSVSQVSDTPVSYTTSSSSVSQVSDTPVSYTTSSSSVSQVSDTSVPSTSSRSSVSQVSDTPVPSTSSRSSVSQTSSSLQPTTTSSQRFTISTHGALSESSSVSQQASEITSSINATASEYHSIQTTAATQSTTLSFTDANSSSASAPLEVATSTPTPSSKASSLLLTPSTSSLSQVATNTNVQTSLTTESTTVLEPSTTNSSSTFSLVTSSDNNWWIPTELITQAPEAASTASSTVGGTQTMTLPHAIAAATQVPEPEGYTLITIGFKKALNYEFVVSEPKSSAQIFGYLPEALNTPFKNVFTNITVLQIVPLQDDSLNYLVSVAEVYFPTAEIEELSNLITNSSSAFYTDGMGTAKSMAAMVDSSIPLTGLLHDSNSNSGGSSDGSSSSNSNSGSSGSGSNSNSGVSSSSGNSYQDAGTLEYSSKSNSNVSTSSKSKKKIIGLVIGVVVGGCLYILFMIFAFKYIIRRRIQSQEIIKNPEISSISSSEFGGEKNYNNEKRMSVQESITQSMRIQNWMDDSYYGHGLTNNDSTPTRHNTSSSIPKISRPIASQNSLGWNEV

Variants of: B1
Settings: with hkr1_yeast HKR1, P41809
Sequence of hkr1_yeast HKR1, P41809 (P41809 whole entry): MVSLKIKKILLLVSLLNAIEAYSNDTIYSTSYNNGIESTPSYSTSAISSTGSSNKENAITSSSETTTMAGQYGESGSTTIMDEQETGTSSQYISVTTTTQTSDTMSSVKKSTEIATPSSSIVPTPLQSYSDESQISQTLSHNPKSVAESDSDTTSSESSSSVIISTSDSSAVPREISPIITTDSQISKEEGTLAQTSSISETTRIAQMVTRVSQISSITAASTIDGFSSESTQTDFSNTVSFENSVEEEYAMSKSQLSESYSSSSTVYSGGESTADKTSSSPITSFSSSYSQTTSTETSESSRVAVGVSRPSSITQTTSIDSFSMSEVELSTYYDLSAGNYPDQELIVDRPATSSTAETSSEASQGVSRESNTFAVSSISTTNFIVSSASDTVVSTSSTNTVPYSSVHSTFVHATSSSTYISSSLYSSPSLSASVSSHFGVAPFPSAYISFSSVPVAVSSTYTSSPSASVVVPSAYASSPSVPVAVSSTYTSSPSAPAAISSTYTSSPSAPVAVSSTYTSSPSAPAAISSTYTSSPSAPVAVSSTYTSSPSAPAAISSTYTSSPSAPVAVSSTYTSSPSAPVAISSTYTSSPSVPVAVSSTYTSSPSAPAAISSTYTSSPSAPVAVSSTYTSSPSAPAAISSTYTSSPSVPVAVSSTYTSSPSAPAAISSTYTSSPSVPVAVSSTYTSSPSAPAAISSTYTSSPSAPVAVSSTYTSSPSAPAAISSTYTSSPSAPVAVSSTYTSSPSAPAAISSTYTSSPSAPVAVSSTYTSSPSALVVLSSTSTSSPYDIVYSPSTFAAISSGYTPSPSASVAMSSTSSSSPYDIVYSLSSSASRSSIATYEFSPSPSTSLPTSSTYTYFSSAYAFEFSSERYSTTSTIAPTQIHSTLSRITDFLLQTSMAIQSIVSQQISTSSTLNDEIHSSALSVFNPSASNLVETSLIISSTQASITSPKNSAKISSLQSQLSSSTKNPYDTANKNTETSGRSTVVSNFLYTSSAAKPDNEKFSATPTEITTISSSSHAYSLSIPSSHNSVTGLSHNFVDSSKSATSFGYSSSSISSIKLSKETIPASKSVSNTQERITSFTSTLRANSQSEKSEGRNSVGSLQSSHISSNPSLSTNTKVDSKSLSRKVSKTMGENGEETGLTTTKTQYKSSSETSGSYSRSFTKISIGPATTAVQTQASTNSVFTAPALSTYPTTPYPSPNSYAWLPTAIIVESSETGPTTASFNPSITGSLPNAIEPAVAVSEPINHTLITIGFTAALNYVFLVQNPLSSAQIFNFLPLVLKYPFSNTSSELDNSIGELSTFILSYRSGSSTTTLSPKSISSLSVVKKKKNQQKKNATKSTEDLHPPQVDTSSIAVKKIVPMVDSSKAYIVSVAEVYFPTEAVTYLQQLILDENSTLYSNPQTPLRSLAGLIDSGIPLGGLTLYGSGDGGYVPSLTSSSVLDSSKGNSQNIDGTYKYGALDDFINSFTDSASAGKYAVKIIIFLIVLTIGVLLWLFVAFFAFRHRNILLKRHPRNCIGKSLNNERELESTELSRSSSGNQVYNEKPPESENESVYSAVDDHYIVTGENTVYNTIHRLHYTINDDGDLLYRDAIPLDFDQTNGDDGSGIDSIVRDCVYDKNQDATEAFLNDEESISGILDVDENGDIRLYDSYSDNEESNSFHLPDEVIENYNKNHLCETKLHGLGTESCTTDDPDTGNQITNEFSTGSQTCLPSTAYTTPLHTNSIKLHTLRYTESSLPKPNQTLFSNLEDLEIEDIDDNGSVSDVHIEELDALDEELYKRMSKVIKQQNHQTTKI

| Variant | effect of a mutation on the interaction |
| --- | --- |
| Y106H | decreasing interaction |
| T108I | decreasing interaction |

Variants of: B2
Settings: with msb2_yeast MSB2, P32334

| Variant | effect of a mutation on the interaction |
| --- | --- |
| Y106H | decreasing interaction |
| T108I | decreasing interaction |
